According to EP4737482A1 (Atheon Bio, Inc., dated 2026):
Positions count from the first letter of the chain named. Values belong to the binder of their own block, whether it stands above or below them.

Assays:
human MYCT1 (hMYCT1) [1] = biological target: T1, human MYCT1 (hMYCT1) (human, UniProt Q8N699 1-235, limits assumed); assay: SPR full kinetics (Biacore 8K), antibody captured via anti-human Fc IgG, MYCT1 as analyte, steady-state affinity model
T1 construct: also called MYC Target 1
T1 sequence: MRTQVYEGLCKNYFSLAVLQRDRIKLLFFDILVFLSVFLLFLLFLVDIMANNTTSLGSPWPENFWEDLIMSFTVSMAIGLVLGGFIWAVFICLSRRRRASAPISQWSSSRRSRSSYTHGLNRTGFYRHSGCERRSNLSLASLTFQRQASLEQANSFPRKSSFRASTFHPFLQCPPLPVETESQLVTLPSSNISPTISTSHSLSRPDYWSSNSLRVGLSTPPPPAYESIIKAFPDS

human MYCT1 (hMYCT1) [2] = biological target: T1, human MYCT1 (hMYCT1); assay: SPR koff ranking, 1:1 binding model
human MYCT1 (hMYCT1) [3] = biological target: T1, human MYCT1 (hMYCT1); assay: SPR koff ranking, single curve, antibody captured via anti-human Fc IgG, 10 nM MYCT1 as analyte, 1:1 binding model
human MYCT1 (hMYCT1) [4] = biological target: T1, human MYCT1 (hMYCT1); assay: SPR full kinetics, multicycle, antibody captured via anti-human Fc IgG, MYCT1 0.625-10 nM as analyte, 1:1 binding model
human MYCT1 (hMYCT1) [5] = biological target: T1, human MYCT1 (hMYCT1); assay: SPR (Biacore 8K), antibody captured via anti-human Fc IgG, MYCT1 as analyte, steady-state affinity model
human MYCT1 (hMYCT1) [6] = biological target: T1, human MYCT1 (hMYCT1); assay: as above; remark: listed apart in the source

B2: 2B4-z8-p7-uIgG1K (antibody, V domains shown)
VH: QVQLVQSGAEVKKPGASVKVSCKASGYTFTDYNMHWVRQAPGQGLEWIGYINPNSGGSSYNRKFKGRVTMTTDTSTSTAYMELRSLRSDDTAVYYCATRFDVWGQGTTVTVSS
VL: DVVMTQSPLSLPVTLGQPASISCKSSQSLLFSDAKTYLNWLQQRPGQSPRRLIYLVSKLDSGVPDRFSGSGSGTDFTLKISRVEAEDVGVYYCWQGTHFPQTFGGGTKVEIK
Kd (human MYCT1 (hMYCT1) [1]): 586 nM

B3: 11B6 parent antibody (antibody, V domains shown)
VH: EVQLVESGGGLVKPGGSLKLSCAASGFTFSDFGIHWVRQAPEKGLEWVGYISSGSRTIHYADTVKGRFTISRDNAKNTLFLQMTNLRSEDTAIYYCARRDWDPEWLAYWGQGTLVTISA
VL: DVVMTQAPLSLPVSLGDQASISCRSSLSLVHSNGHTYLHWYLQKPGQSPKLLIYKVSNRFSGVPDRFSGSGSGTDFTLKIRRVEAEDLGVYFCSQSTHVPFTFGSGTKLEIK
notes: Mouse parental variable domains; also called parent antibody (11B6); 11B6 clone
koff (human MYCT1 (hMYCT1) [2]): 0.00456 s⁻¹ | koff (human MYCT1 (hMYCT1) [3]): 0.00496 s⁻¹ | Kd (human MYCT1 (hMYCT1) [4]): 1.2 nM | koff (human MYCT1 (hMYCT1) [4]): 0.00411 s⁻¹ | kon (human MYCT1 (hMYCT1) [4]): 3.44e+06 M⁻¹ s⁻¹

Second part, the binder after the results:

Kd (human MYCT1 (hMYCT1) [1]): 484 nM
B1: 2B4-z2-p7-uIgG1K (antibody, V domains shown)
VH: B2 VH with I48M
VL: B2 VL

Kd (human MYCT1 (hMYCT1) [5]): 273 nM | Kd (human MYCT1 (hMYCT1) [6]): 181 nM | Kd (human MYCT1 (hMYCT1) [1]): 281 nM
B4: 2B4 parent antibody (antibody, V domains shown)
VH: EVQLQQSGPELVKPGASVKMSCKASGYTFTDYNMHWVRQSHGKGLEWIGYINPNNGGSSYNRKFKGKATLTVNKSSRSASMELRSLTSEDSAVYYCATRFDVWGTGTTVTVSS
VL: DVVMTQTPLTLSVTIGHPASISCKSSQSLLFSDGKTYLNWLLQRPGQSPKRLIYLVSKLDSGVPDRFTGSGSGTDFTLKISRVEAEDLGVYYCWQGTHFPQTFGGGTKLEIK
notes: Mouse parental variable domains; also called parent antibody (2B4); 2B4 clone
